# Measured values from patent CN113461812A (BEIJING LUFEI BIOTECHNOLOGY CO LTD, dated 2021).
# B1: 人源化新冠病毒中和性抗体nCoV-00D (antibody, V domains shown)
# VH: QVQLQQSGAELVKPGASVKLSCKTSGYTFTRYYIYWVKQRPGQGLEWIGEINPNNGGTNFNEKFKSKATLTVDKSSNTAYMQLSSLTSEDSAVYYCTIFITTVIARDYWGQGTLVTVSA
# VL: DIVLTQSPASLAVSLGQRATISCRASESVEYSGTTLMQWFQQKPGQPPKLLIYAASNVESGVPARFSGSGSGTDFSLNIHPVEEDDVAMYFCHQSREVPWTFGGGTKLEIKR
# notes: also called nCoV-00D抗体
# Tests used:
# Test in all cases: SPR (Biacore), 1:1 binding fit
# [1] = molecular target: T1, RBD突变型(K417N E484K N501Y) (SARS-CoV-2, UniProt P0DTC2 319-541)
# T1 construct: domain: RBD
# [2] = molecular target: T2, RBD突变型(N501Y) (SARS-CoV-2, UniProt P0DTC2 319-541)
# T2 construct: domain: RBD
# [3] = molecular target: T3, RBD突变型(K417T E484K N501Y) (SARS-CoV-2, UniProt P0DTC2 319-541)
# T3 construct: domain: RBD
binder,measurement,setting,value
B1,Kd,[1],7.91 pM
same,koff,[1],2.35e-07 s⁻¹
same,kon,[1],29700 M⁻¹ s⁻¹
same,Kd,[2],0.246 pM
same,koff,[2],9.51e-08 s⁻¹
same,kon,[2],387000 M⁻¹ s⁻¹
same,Kd,[3],0.53 pM
same,koff,[3],1.98e-08 s⁻¹
same,kon,[3],37400 M⁻¹ s⁻¹
